This note sets out measurements from the supplement of paper PMC12764529.

Series [1] can be described thus: folding stability dG unfold (combined trypsin and chymotrypsin); higher = more stable. The method, boiled down:
(§1)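 Designed mini-proteins with no cysteine and under 80 residues were kept only if AlphaFold2 dimer inter-PAE was above 15. In a PA-tagged cDNA display construct, they were digested with trypsin and chymotrypsin and then sequenced. K50 was inferred by Bayesian fitting of counts, and unfolding free energy was derived per protease or combined against a sequence-predicted unfolded-state K50 and a shared folded-state K50.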

Series [2] is described as follows: folding stability dG unfold from trypsin proteolysis; higher = more stable. The method, boiled down:
as §1

Series [3] in a line: folding stability dG unfold from chymotrypsin proteolysis; higher = more stable. The method, boiled down:
as §1

± gives the half width of the 95% confidence interval.

As for “SAGMKIKIIKLDKNLEELSEEELKKLLEELAKKGLVEKKKDGKKVIPLTVIDKKTKKTYTFYIEIEKPPSAG [r5_243_TrROS_Hall]”, the “folding stability dG unfold” value is 2.33 ± 0.17 kcal/mol in series [1], 1.36 ± 0.041 kcal/mol in series [2] and 2.72 ± 0.057 kcal/mol in series [3].

Regarding “SAGMKIKVEVKETGETYEIEISEEELKKKLKEKFPEVKEITVVVEDPEDMSEEELREKALKAAEELLKSAGG [r19_298_TrROS_Hall]”, the “folding stability dG unfold” value in series [1] came to 2.28 ± 0.18 kcal/mol; in series [2] it was 1.59 ± 0.067 kcal/mol; in series [3] it was 2.49 ± 0.051 kcal/mol.

Consider “SAGMKITLPKGVKSIKVEEVNGKKVIYIEVDGKIFVYDLKTGKLYIYDKKTGEKKEITIKKGDTITLKSAGG [r19_138_TrROS_Hall]”, for which the “folding stability dG unfold” value in series [1] is 1.55 ± 0.07 kcal/mol; in series [2] it was 1.03 ± 0.028 kcal/mol; in series [3], 1.79 ± 0.067 kcal/mol.

“SAGMKITVVELDGKSPEELSEEELKKLAEELLKELFPDVKKVKKVTVKVERLPDGRLVLVEVEIEVEEPSAG [r5_526_TrROS_Hall]”: the “folding stability dG unfold” value in series [1] was 1.79 ± 0.13 kcal/mol; in series [2] it was 2.18 ± 0.13 kcal/mol; in series [3] it was 1.03 ± 0.089 kcal/mol.

In the case of “SAGMKIVEIEKKEDGTVKIKIEVNGEEKEIEVKVGETITLPDGSEIEVLEDGTIKVRPLPEPEVEEEESAGG [r19_17_TrROS_Hall]”, the entries for the “folding stability dG unfold” value in series [1], in series [2] and in series [3] were 2.64 ± 0.26 kcal/mol, 3.24 ± 0.39 kcal/mol and 2 ± 0.17 kcal/mol, respectively.

On to “SAGMKKKITVKVKVKTEEEAEKLAEELEKELGLKVTVEKNEETGVYTITVEVSPEAVEALKKAGVEIESAGG [r19_306_TrROS_Hall]”, for which the “folding stability dG unfold” value in series [1] was found to be 1.86 ± 0.28 kcal/mol; in series [2], 1.93 ± 0.33 kcal/mol; in series [3], 1.92 ± 0.083 kcal/mol.

As to “SAGMKKKKIKKVEIEIKKGEKTIRVKLENGEEIEYKFKEEDLEEALKKIAEKLGLKKGDKIKIVEIEIESAG [r5_923_TrROS_Hall]”, the “folding stability dG unfold” value in series [1] is 1.29 ± 0.33 kcal/mol; in series [2], 1.16 ± 0.12 kcal/mol; in series [3] it was 0.907 ± 0.13 kcal/mol.

Regarding “SAGMKKPPPPTVTIKIRVNGKTITITVYPDGTVTVTFENGEKKTIKMTPEEVEKLLKELEKKGYEIELVSAG [r5_753_TrROS_Hall]”, the entries for the “folding stability dG unfold” value in series [1], in series [2] and in series [3] were 1.49 ± 0.48 kcal/mol, 2.51 ± 0.26 kcal/mol and 0.664 ± 0.33 kcal/mol, respectively.

“SAGMKKVKIETTEFREFEGGEREIVMKVYKPDGSEVATVVLPFPPDLSEEEMRERAEAEAKKLAEELGLSAG [r5_697_JUSTAS]”: the entries for the “folding stability dG unfold” value in series [1], in series [2] and in series [3] were 0.636 ± 0.21 kcal/mol, 0.581 ± 0.094 kcal/mol and 0.579 ± 0.17 kcal/mol, respectively.

Consider “SAGMKPEEVRVIEIPPGMTVEEIIEAIEKEGPLRIRVEGKELEFESKEDIEAAIRNAPEPVRIEVRRLSAGG [r19_95_TrROS_Hall]”, for which the entries for the “folding stability dG unfold” value in series [1], in series [2] and in series [3] were 1 ± 0.089 kcal/mol, 0.865 ± 0.04 kcal/mol and 1.05 ± 0.092 kcal/mol, respectively.

As for “SAGMKPGDMRPVEIPFEIYQYDDGGPKPVAPMTIKIMVNPDEGYVMLEIENPGNGEPVIIFTLPADDISAGG [r19_413_TrROS]”, the “folding stability dG unfold” value in series [1] was 2.16 ± 0.1 kcal/mol; in series [2] it was 1.65 ± 0.055 kcal/mol; in series [3], 2.42 ± 0.057 kcal/mol.

Consider “SAGMKPGEPITLVLPDGVVIPIKINPNGGVEIDDIEPPPDGTYNMDARHPNNGKEITLNIKLPPGFQILSAG [r5_394_TrROS]”, for which the “folding stability dG unfold” value in series [1] amounted to 0.95 ± 0.43 kcal/mol; in series [2], 1.93 ± 0.13 kcal/mol; in series [3] it was 0.239 ± 0.77 kcal/mol.

“SAGMKPGETIKNAKIRITYPNGEKKELKIDDVVKIVEIDEEKGVITIELKNGEKIEIKLPPGAKIEIEPSAG [r5_762_TrROS_Hall]”: the “folding stability dG unfold” value in series [1] was found to be 3.2 ± 0.58 kcal/mol; in series [2] it was 3.42 ± 0.26 kcal/mol; in series [3] it was 1.83 ± 0.24 kcal/mol.

Regarding “SAGMKPGETITIVLPDGTKIEIKILENGEVEIVKIEKKEDGTYKITIRVKVNGKEIEKEITLPPGAKILSAG [r5_394_TrROS_Hall]”, the “folding stability dG unfold” value in series [1] was 2.16 ± 0.27 kcal/mol; in series [2], 2.52 ± 0.11 kcal/mol; in series [3] it was 2.04 ± 0.12 kcal/mol.

As to “SAGMKPGEVLTVEDIPPGALLRNPKGESLGPVVEVEVRALEDSVEAVVTFPDGSKATVTFPADDIVLDPSAG [r5_850_TrMRF]”, the results for the “folding stability dG unfold” value in series [1], in series [2] and in series [3] were 0.987 ± 0.33 kcal/mol, 1.05 ± 0.19 kcal/mol and 0.991 ± 0.21 kcal/mol, respectively.

As to “SAGMKPIVELLKKEPNPKVILVEVFPTGGEAKIVVKDKVYVFPVKPGPGRRVLVVDPDGKILEVKPFPVSAG [r5_329_TrMRF]”, the “folding stability dG unfold” value in series [1] was determined as 0.708 ± 0.12 kcal/mol; in series [2] it was 0.596 ± 0.15 kcal/mol; in series [3], 0.709 ± 0.14 kcal/mol.

For the sequence “SAGMKPPKIEITIEVVEKDGELYVRVKIKLENGEEIEIVMSLDEVKELLKKLFPEITEIEVEEVRLPPKSAG [r5_25_TrROS_Hall]”, the entries for the “folding stability dG unfold” value in series [1], in series [2] and in series [3] were 3.74 ± 0.5 kcal/mol, 2.39 ± 0.12 kcal/mol and 4.09 ± 0.18 kcal/mol, respectively.

For “SAGMKPSPEGKTIITIDTSTGKVDVVFPDGKEFTLPFDSSSIEEIIKTIKEKLGYPPEVPFNIDEIEIASAG [r5_923_JUSTAS]”, the results for the “folding stability dG unfold” value in series [1], in series [2] and in series [3] were 2.31 ± 0.079 kcal/mol, 2.41 ± 0.1 kcal/mol and 2.239 ± 0.019 kcal/mol, respectively.

Take “SAGMKTLEKTGSAAKIEEAIAAGKSLEEVFETAGKDGGTSRTLTEPNRTLTFSGETSKPGVATLTTIPESAG [r5_343_JUSTAS]”: the “folding stability dG unfold” value in series [1] is -0.0165 ± 0.15 kcal/mol; in series [2], -0.662 ± 0.55 kcal/mol; in series [3], 0.279 ± 0.18 kcal/mol.

On to “SAGMKTVTVKVKISEEEREKLKELGFEIVEEKEDYLVIKVKVPPELSEEELEEAKKEGMTLEEALAKLSAGG [r19_115_TrROS_Hall]”, for which the results for the “folding stability dG unfold” value in series [1], in series [2] and in series [3] were 1.74 ± 0.27 kcal/mol, 2.05 ± 0.12 kcal/mol and 1.71 ± 0.077 kcal/mol, respectively.

Regarding “SAGMKVIEIDVPVSKIEEVKEELEAEAKEKGLNIKFEKLEKLPGNKYKMIVTVTDPTSNEKTIYNINILSAG [r5_41_JUSTAS]”, the figures for the “folding stability dG unfold” value in series [1], in series [2] and in series [3] were 4.06 ± 0.12 kcal/mol, 3.83 ± 0.27 kcal/mol and 4.08 ± 0.051 kcal/mol, respectively.

Take “SAGMKVTTKTYTLTLTLPDGTRELKVTFTTPPDGYTATITDPNSSKVITLPFSSEEEARSAIEAIAARLSAG [r5_480_JUSTAS]”: the “folding stability dG unfold” value is 2.62 ± 0.092 kcal/mol in series [1], 2.48 ± 0.036 kcal/mol in series [2] and 2.7 ± 0.06 kcal/mol in series [3].

Take “SAGMLDVPDDAEITVLVSLEKVPLPGDSSERVLAGVVKLKVKTLPNGEQVIESAEIKIVSAEELKKAGLSAG [r5_340_TrMRF]”: the “folding stability dG unfold” value in series [1] came out at 1.43 ± 0.17 kcal/mol; in series [2], 1.34 ± 0.038 kcal/mol; in series [3] it was 1.6 ± 0.099 kcal/mol.

With “SAGMLNIPVDTPEKLLEIVKKLPGPVVVRSTSGTTVTVASLEELKEIAERGVPVELLLPEELPAEERAASAG [r5_677_JUSTAS]”, the “folding stability dG unfold” value in series [1] is 0.576 ± 0.067 kcal/mol; in series [2] it was 0.0824 ± 0.051 kcal/mol; in series [3], 0.872 ± 0.041 kcal/mol.

For “SAGMLSVEQLLEALKEGKEILIVAESPEERERAKRLLAEELGLSEEEIDALLKKAKIKVLPADDPELKKSAG [r5_368_TrROS_Hall]”, the “folding stability dG unfold” value in series [1] worked out at 2.46 ± 0.2 kcal/mol; in series [2], 1.35 ± 0.086 kcal/mol; in series [3] it was 2.72 ± 0.16 kcal/mol.

Take “SAGMLTLRVVLPKEEAEARARALAEELRRRLGLPPGAKIEVKVVEYDEETGEVVVEVTIEVELPPGVEPSAG [r5_537_TrROS_Hall]”: the “folding stability dG unfold” value is 3.98 ± 0.095 kcal/mol in series [1], 4.27 ± 0.14 kcal/mol in series [2] and 3.64 ± 0.051 kcal/mol in series [3].

Regarding “SAGMMEIVEVKEVDGRLELKIKDKETGEEFTITVERKEDGELKVTIEMSDEAAERLRELFPEIDRLEIKSAG [r5_933_TrROS_Hall]”, the “folding stability dG unfold” value in series [1] worked out at 2.93 ± 0.097 kcal/mol; in series [2], 2.19 ± 0.069 kcal/mol; in series [3], 3.37 ± 0.19 kcal/mol.

With “SAGMMKIKITLENGEELTIEVSPEEKEKLKEGDIVEIRLEDGTVFKAEVVEVRPPGETVKIRITEAVPSAGG [r19_274_TrROS_Hall]”, the entries for the “folding stability dG unfold” value in series [1], in series [2] and in series [3] were 2.54 ± 0.16 kcal/mol, 1.67 ± 0.086 kcal/mol and 2.9 ± 0.035 kcal/mol, respectively.

Turning to “SAGMMKVKIELTIVVETKEEAEKLAEELKKALEELGIKEVKVTVEYDKETKKVTVTVEIEIELEPELLSAGG [r19_92_TrROS_Hall]”, the “folding stability dG unfold” value amounted to 2.17 ± 0.23 kcal/mol in series [1], 2.18 ± 0.21 kcal/mol in series [2] and 2.17 ± 0.1 kcal/mol in series [3].

For “SAGMNLDNMKIKEIKLQVNPDGSVEVPFEFRFPNGKPMKVSMRVNNGMIEIYYPNGWPITIDIPPGAFSAGG [r19_84_TrROS]”, the “folding stability dG unfold” value is 1.36 ± 0.15 kcal/mol in series [1], 1.01 ± 0.15 kcal/mol in series [2] and 1.48 ± 0.16 kcal/mol in series [3].

As for “SAGMPDVPPVPRTFRLEIEIEVPAEDPELARELAEEIREEIRRLGAVRTEVEIDPEPGRVRVRVEFVEGSAG [r5_512_TrMRF]”, the “folding stability dG unfold” value in series [1] was found to be 1.48 ± 0.043 kcal/mol; in series [2], 1.36 ± 0.018 kcal/mol; in series [3], 1.56 ± 0.051 kcal/mol.

For “SAGMPITVDSEVDPETGTTTYTITMPRGPGEPVTVTIPVTYSDDSVTIEVTASPGVDAAEIKALIEKQSSAG [r5_478_JUSTAS]”, the results for the “folding stability dG unfold” value in series [1], in series [2] and in series [3] were 0.597 ± 0.11 kcal/mol, 0.645 ± 0.053 kcal/mol and 0.34 ± 0.22 kcal/mol, respectively.

On to “SAGMPKPVVTPVTLPVNGALITFTVDPEVPLATFTFDEPDVNAVAEEYAKERAAELEKAGIPTKIVPSSAGG [r19_354_JUSTAS]”, for which the “folding stability dG unfold” value amounted to 0.662 ± 0.16 kcal/mol in series [1], 0.3 ± 0.041 kcal/mol in series [2] and 0.743 ± 0.11 kcal/mol in series [3].

In the case of “SAGMPLPAEELAERLAKEIEESTDYKVSIEEIKPEGEYVIIKVRVELPEKYKDKGYEEEEFVAIFPGDLSAG [r5_970_TrMRF]”, the “folding stability dG unfold” value in series [1] was 0.702 ± 0.25 kcal/mol; in series [2], 0.703 ± 0.073 kcal/mol; in series [3] it was 0.806 ± 0.16 kcal/mol.

For “SAGMPLSVEEAIALLRKEIEAIPVPPSVTEIEFEITIPADGRPVKITVKVNEGKLEITVTVGDKPIKIGSAG [r14_199_JUSTAS]”, the “folding stability dG unfold” value is 2.17 ± 0.11 kcal/mol in series [1], 1.79 ± 0.14 kcal/mol in series [2] and 2.3 ± 0.07 kcal/mol in series [3].
